From the supplement of paper PMC5998384

Key:
[1] = test system: HeLa Kyoto; assay: solubility in G1/S (NP-40 vs SDS abundance) (log2 ratio); higher = more soluble; conditions: cell cycle stage: G1/S
[2] = test system: HeLa Kyoto; assay: solubility change mitosis vs G1/S (difference of NP-40 vs SDS log2 ratios) (log2 ratio difference); higher = more soluble in mitosis
[3] = test system: HeLa Kyoto; assay: melting temperature (median over replicates), in situ; higher = more thermally stable
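Wherever melting temperature (median over replicates), in situ is given: HeLa Kyoto cells synchronized by double thymidine or nocodazole block, proteins quantified by TMT10plex mass spectrometry, three independent biological replicates.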
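Wherever solubility change mitosis vs G1/S (difference of NP-40 vs SDS log2 ratios) is given: synchronized HeLa Kyoto cells (double thymidine block for G1/S, nocodazole release for mitosis), protein amounts in NP-40 versus SDS lysates quantified by mass spectrometry, three biological replicates.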
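Wherever solubility in G1/S (NP-40 vs SDS abundance) is given: HeLa Kyoto cells arrested at G1/S by double thymidine block, proteins quantified by TMT10plex mass spectrometry in mild NP-40 versus SDS extracts, three biological replicates.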

Chain of LLPH (chain, as listed by the source): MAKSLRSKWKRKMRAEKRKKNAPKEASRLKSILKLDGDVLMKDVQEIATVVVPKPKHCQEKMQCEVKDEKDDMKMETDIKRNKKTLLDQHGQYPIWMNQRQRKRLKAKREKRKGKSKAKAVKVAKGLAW

Substance | solubility in G1/S (log2) [1] | solubility change mitosis (log2) [2] | melting temperature ([3]; cell cycle stage: mitosis) | melting temperature ([3]; cell cycle stage: G1/S)
MAAAAAALSGAGTPPAGGGAGGGGAGGGGSPPGGWAVARLEGREFEYLMKKRSVTIGRNSSQGSVDVSMGHSSFISRRHLEIFTPPGGGGHGGAAPELPPAQPRPDAGGDFYLRCLGKNGVFVDGVFQRRGAPPLQLPRVCTFRFPSTNIKITFTALSSEKREKQEASESPVKAVQPHISPLTINIPDTMAHLISPLPSPTGTISAANSCPSSPRGAGSSGYKVGRVMPSDLNLMADNSQPENEKEASGGDSPKDDSKPPYSYAQLIVQAITMAPDKQLTLNGIYTHITKNYPYYRTADKGWQNSIRHNLSLNRYFIKVPRSQEEPGKGSFWRIDPASESKLIEQAFRKRRPRGVPCFRTPLGPLSSRSAPASPNHAGVLSAHSSGAQTPESLSREGSPAPLEPEPGAAQPKLAVIQEARFAQSAPGSPLSSQPVLITVQRQLPQAIKPVTYTVATPVTTSTSQPPVVQTVHVVHQIPAVSVTSVAGLAPANTYTVSGQAVVTPAAVLAPPKAEAQENGDHREVKVKVEPIPAIGHATLGTASRIIQTAQTTPVQTVTIVQQAPLGQHQLPIKTVTQNGTHVASVPTAVHGQVNNAAASPLHMLATHASASASLPTKRHNGDQPEQPELKRIKTEDGEGIVIALSVDTPPAAVREKGVQN [FOXK2] | 0.267 | -0.0189 | 50.7 °C | 
MRRFKRKHLTAIDCQHLARSHLAVTQPFGQRWTNRDPNHGLYPKPRTKRGSRGQGSQRCIPEFFLAGKQPCTNDMAKSNSVGQDSCQDSEGDMIFPAESSCALPQEGSAGPGSPGSAPPSRKRSWSSEEESNQATGTSRWDGVSKKAPRHHLSVPCTRPREARQEAEDSTSRLSAESGETDQDAGDVGPDPIPDSYYGLLGTLPCQEALSHICSLPSEVLRHVFAFLPVEDLYWNLSLVCHLWREIISDPLFIPWKKLYHRYLMNEEQAVSKVDGILSNCGIEKESDLCVLNLIRYTATTKCSPSVDPERVLWSLRDHPLLPEAEACVRQHLPDLYAAAGGVNIWALVAAVVLLSSSVNDIQRLLFCLRRPSSTVTMPDVTETLYCIAVLLYAMREKGINISNRIHYNIFYCLYLQENSCTQATKVKEEPSVWPGKKTIQLTHEQQLILNHKMEPLQVVKIMAFAGTGKTSTLVKYAEKWSQSRFLYVTFNKSIAKQAERVFPSNVICKTFHSMAYGHIGRKYQSKKKLNLFKLTPFMVNSVLAEGKGGFIRAKLVCKTLENFFASADEELTIDHVPIWCKNSQGQRVMVEQSEKLNGVLEASRLWDNMRKLGECTEEAHQMTHDGYLKLWQLSKPSLASFDAIFVDEAQDCTPAIMNIVLSQPCGKIFVGDPHQQIYTFRGAVNALFTVPHTHVFYLTQSFRFGVEIAYVGATILDVCKRVRKKTLVGGNHQSGIRGDAKGQVALLSRTNANVFDEAVRVTEGEFPSRIHLIGGIKSFGLDRIIDIWILLQPEEERRKQNLVIKDKFIRRWVHKEGFSGFKRYVTAAEDKELEAKIAVVEKYNIRIPELVQRIEKCHIEDLDFAEYILGTVHKAKGLEFDTVHVLDDFVKVPCARHNLPQLPHFRVESFSEDEWNLLYVAVTRAKKRLIMTKSLENILTLAGEYFLQAELTSNVLKTGVVRCCVGQCNNAIPVDTVLTMKKLPITYSNRKENKGGYLCHSCAEQRIGPLAFLTASPEQVRAMERTVENIVLPRHEALLFLVF [FBXO18] | -0.21 | -0.0335 | 52.4 °C | 51.7 °C
RINT1 | -0.0714 | -0.105 | 49.2 °C | 51.4 °C
MATLSFVFLLLGAVSWPPASASGQEFWPGQSAADILSGAASRRRYLLYDVNPPEGFNLRRDVYIRIASLLKTLLKTEEWVLVLPPWGRLYHWQSPDIHQVRIPWSEFFDLPSLNKNIPVIEYEQFIAESGGPFIDQVYVLQSYAEGWKEGTWEEKVDERPCIDQLLYSQDKHEYYRGWFWGYEETRGLNVSCLSVQGSASIVAPLLLRNTSARSVMLDRAENLLHDHYGGKEYWDTRRSMVFARHLREVGDEFRSRHLNSTDDADRIPFQEDWMKMKVKLGSALGGPYLGVHLRRKDFIWGHRQDVPSLEGAVRKIRSLMKTHRLDKVFVATDAVRKEYEELKKLLPEMVRFEPTWEELELYKDGGVAIIDQWICAHARFFIGTSVSTFSFRIHEEREILGLDPKTTYNRFCGDQEKACEQPTHWKITY [POFUT2] | 0.154 | -0.151 | 53.8 °C | 
MAPLRFSANLSWLFPELSGLPARVRAAGSSGFEAVEVAWPYAETPEALARAAREAGLRLVLINTPPGDQEKGEMGLGAVPGRQAAFREGLEQAVRYAKALGCPRIHLMAGRVPQGADRIAVKAEMEAVFLENLRHAAGVLAQEDLVGLLEPINTRITDPQYFLDTPQQAAAILQKVGRPNLQLQMDIFHWQIMDGNLTGNIREFLPIVGHVQVAQVPGRGEPSSPGELNFPYLFQLLEDEGYKGFVGCEYQPRGDTVEGLSWLRSYWDRRGHPEAGQ [HYI] | 0.344 | 0.234 | 54.7 °C | 55.2 °C
RERE | -0.116 | 0.148 | 50.7 °C | 
MYLSICCCFLLWAPALTLKNLNYSVPEEQGAGTVIGNIGRDARLQPGLPPAERGGGGRSKSGSYRVLENSAPHLLDVDADSGLLYTKQRIDRESLCRHNAKCQLSLEVFANDKEICMIKVEIQDINDNAPSFSSDQIEMDISENAAPGTRFPLTSAHDPDAGENGLRTYLLTRDDHGLFGLDVKSRGDGTKFPELVIQKALDREQQNHHTLVLTALDGGEPPRSATVQINVKVIDSNDNSPVFEAPSYLVELPENAPLGTVVIDLNATDADEGPNGEVLYSFSSYVPDRVRELFSIDPKTGLIRVKGNLDYEENGMLEIDVQARDLGPNPIPAHCKVTVKLIDRNDNAPSIGFVSVRQGALSEAAPPGTVIALVRVTDRDSGKNGQLQCRVLGGGGTGGGGGLGGPGGSVPFKLEENYDNFYTVVTDRPLDRETQDEYNVTIVARDGGSPPLNSTKSFAIKILDENDNPPRFTKGLYVLQVHENNIPGEYLGSVLAQDPDLGQNGTVSYSILPSHIGDVSIYTYVSVNPTNGAIYALRSFNFEQTKAFEFKVLAKDSGAPAHLESNATVRVTVLDVNDNAPVIVLPTLQNDTAELQVPRNAGLGYLVSTVRALDSDFGESGRLTYEIVDGNDDHLFEIDPSSGEIRTLHPFWEDVTPVVELVVKVTDHGKPTLSAVAKLIIRSVSGSLPEGVPRVNGEQHHWDMSLPLIVTLSTISIILLAAMITIAVKCKRENKEIRTYNCRIAEYSHPQLGGGKGKKKKINKNDIMLVQSEVEERNAMNVMNVVSSPSLATSPMYFDYQTRLPLSSPRSEVMYLKPASNNLTVPQGHAGCHTSFTGQGTNASETPATRMSIIQTDNFPAEPNYMGSRQQFVQSSSTFKDPERASLRDSGHGDSDQADSDQDTNKGSCCDMSVREALKMKTTSTKSQPLEQEPEECVNCTDECRVLGHSDRCWMPQFPAANQAENADYRTNLFVPTVEANVETETYETVNPTGKKTFCTFGKDKREHTILIANVKPYLKAKRALSPLLQEVPSASSSPTKACIEPCTSTKGSLDGCEAKPGALAEASSQYLPTDSQYLSPSKQPRDPPFMASDQMARVFADVHSRASRDSSEMGAVLEQLDHPNRDLGRESVDAEEVVREIDKLLQDCRGNDPVAVRK [PCDH17] | 0.25 | -0.0215 | 53.4 °C | 53.8 °C
GTF2H1 | -0.0948 | 0.114 | 49.1 °C | 50.2 °C
LLPH | -1.23 | 1.03 | 55.8 °C | 58.7 °C
MAAEEKDPLSYFAAYGSSSSGSSDEEDNIEPEETSRRTPDPAKSAGGCRNKAEKRLPGPDELFRSVTRPAFLYNPLNKQIDWERHVVKAPEEPPKEFKIWKSNYVPPPETYTTEKKPPPPELDMAIKWSNIYEDNGDDAPQNAKKARLLPEGEETLESDDEKDEHTSKKRKVEPGEPAKKKK [C1ORF52] | 0.074 | 0.413 | 52.5 °C | 54.3 °C
